Reference: CN117126283A (SHENZHEN NEW IND BIOMEDICAL ENGINEERING CO LTD, dated 2023)
One block for each binder: values may come before it.

Assays:
纤溶酶-α2纤溶酶抑制剂复合物(PIC) = biological target: T1, 纤溶酶-α2纤溶酶抑制剂复合物(PIC) (UniProt P00747 97-810; P08697 40-491, limits assumed); test: SPR (BIAcore 3000), antibody captured by goat anti-mouse IgG Fc on CM5, PIC as analyte
T1 construct: also called PIC抗原; PIC复合物

纤溶酶原(Plg) = biological target: T2, 纤溶酶原(Plg) (UniProt P00747 20-810); test: summing-up of the examples (ELISA specificity, Example 4; table 2 not shown)
T2 construct: Free precursor, used as coating antigen in ELISA; also called Plasminogen; 游离态的Plg
T2 sequence (P00747 20-810 limits assumed): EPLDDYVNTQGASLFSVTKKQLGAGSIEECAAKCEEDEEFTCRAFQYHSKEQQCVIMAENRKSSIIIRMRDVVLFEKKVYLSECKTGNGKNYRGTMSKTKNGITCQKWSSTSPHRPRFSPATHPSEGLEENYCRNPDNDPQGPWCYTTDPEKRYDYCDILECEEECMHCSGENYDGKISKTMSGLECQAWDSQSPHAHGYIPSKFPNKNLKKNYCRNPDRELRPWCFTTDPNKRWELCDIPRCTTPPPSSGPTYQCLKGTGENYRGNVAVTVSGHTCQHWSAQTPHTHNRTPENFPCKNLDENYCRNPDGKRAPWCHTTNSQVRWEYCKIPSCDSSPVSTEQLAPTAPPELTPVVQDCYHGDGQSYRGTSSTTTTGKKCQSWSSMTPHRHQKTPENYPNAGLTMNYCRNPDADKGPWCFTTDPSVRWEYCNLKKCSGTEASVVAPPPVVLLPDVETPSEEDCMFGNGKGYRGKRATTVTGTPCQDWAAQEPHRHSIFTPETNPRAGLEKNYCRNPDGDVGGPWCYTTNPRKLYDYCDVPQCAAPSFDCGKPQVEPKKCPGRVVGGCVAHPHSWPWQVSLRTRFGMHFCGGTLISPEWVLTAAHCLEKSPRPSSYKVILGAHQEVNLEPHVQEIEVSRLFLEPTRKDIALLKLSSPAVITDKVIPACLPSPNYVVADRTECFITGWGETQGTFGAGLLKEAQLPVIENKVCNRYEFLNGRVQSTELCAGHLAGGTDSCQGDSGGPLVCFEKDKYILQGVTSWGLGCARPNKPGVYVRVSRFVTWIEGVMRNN

α2-纤溶酶抑制剂(α2-AP) = biological target: T3, α2-纤溶酶抑制剂(α2-AP) (UniProt P08697 40-491, limits assumed); test: as above
T3 construct: also called α2-antiplasmin; 游离态的α2-AP
T3 sequence (looked up): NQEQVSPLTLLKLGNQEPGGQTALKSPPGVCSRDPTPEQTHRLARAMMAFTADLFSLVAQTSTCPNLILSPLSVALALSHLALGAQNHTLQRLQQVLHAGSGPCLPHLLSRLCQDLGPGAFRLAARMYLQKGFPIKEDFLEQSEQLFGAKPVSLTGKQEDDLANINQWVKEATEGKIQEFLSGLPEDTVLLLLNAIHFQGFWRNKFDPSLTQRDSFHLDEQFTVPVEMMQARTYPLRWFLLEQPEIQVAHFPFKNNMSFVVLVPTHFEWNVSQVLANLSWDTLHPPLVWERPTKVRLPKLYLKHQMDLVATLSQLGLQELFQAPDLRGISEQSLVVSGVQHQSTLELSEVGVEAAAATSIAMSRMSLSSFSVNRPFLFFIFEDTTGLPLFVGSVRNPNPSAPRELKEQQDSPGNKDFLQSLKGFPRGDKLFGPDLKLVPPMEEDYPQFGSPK

T1 sequence (P00747 97-810 limits assumed, one chain of several): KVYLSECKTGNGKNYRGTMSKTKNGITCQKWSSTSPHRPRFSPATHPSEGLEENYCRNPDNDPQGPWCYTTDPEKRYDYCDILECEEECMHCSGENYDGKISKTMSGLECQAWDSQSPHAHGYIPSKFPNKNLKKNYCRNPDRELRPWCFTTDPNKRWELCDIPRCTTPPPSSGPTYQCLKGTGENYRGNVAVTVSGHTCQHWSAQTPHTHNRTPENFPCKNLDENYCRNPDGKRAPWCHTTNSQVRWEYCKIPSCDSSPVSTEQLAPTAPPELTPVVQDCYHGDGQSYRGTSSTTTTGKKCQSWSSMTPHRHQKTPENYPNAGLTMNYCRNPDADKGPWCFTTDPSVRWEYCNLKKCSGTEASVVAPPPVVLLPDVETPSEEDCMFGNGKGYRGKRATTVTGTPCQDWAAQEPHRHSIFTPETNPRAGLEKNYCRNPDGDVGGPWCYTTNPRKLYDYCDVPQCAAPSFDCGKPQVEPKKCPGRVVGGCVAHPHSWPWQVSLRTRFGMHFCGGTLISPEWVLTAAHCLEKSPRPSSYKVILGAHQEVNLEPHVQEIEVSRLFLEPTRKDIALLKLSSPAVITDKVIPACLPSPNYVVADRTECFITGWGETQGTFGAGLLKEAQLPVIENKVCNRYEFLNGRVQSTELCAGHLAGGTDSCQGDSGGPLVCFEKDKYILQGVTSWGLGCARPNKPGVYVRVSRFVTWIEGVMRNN

Kd (纤溶酶-α2纤溶酶抑制剂复合物(PIC)): 1.29 nM | koff (纤溶酶-α2纤溶酶抑制剂复合物(PIC)): 8.54e-05 s⁻¹ | kon (纤溶酶-α2纤溶酶抑制剂复合物(PIC)): 65900 M⁻¹ s⁻¹ | binding result (纤溶酶原(Plg)): no binding | binding result (α2-纤溶酶抑制剂(α2-AP)): no binding
B1: PIC抗体(WT1) (antibody, mouse IgG1, kappa, V domains shown)
VH: QVQLQQSGPELVKPGASVKLSCKASGNAFSSSWMNWVKQRPGQGLEWIGRIYPGDGDTNYNGKFKGKATLTVDKSSSTVYMQLSSLTSVDSAVYFCGRGNPTTAYAMDYWGQGTSVTVSS
VL: DIVLTQSPASLAVSLGQRATLSCRASESVDSFGYSFMHWYQQNPGQPPKLLIYRASNLESGIPARFSGSGSRTDFTLTINPVEADDVATYFCQQTNEDPYTFGGGAKLEIKR
notes: that VL1/VH1 belong to 1C2B4 (WT1) follows from the order of naming, not from an explicit sentence; also called 1C2B4; PIC单抗(WT1)

Kd (纤溶酶-α2纤溶酶抑制剂复合物(PIC)): 1.21 nM | koff (纤溶酶-α2纤溶酶抑制剂复合物(PIC)): 9.54e-05 s⁻¹ | kon (纤溶酶-α2纤溶酶抑制剂复合物(PIC)): 78900 M⁻¹ s⁻¹ | binding result (纤溶酶原(Plg)): no binding | binding result (α2-纤溶酶抑制剂(α2-AP)): no binding
B2: PIC抗体(WT2) (antibody, mouse IgG1, kappa, V domains shown)
VH: QVQLQQPGAELVRPGASVKLSCKASGYTFTSSWMHWVKQRPEQGLEWIGYIDPYDSETHYNQKFKDKAILTVDKSSSTAYMQLSSLTSEDSAVYYCARGYDRSFDYWGQGTTLTVSS
VL: DIKMTQSPSSMFASLGERVTITCKASQDIKSFLNWYQQKPWRSPKTLIYYATSLADGVPSRFSGSGSGQDFSLTISSLESDDAATYYCLQHGESPFTFGGGTKLEIKR
notes: That VL2/VH2 belong to 5B3F6 (WT2) follows from the order of naming, not from an explicit sentence; also called 5B3F6; PIC单抗(WT2)
